In assay [1] the target is mouse IgG (Sigma Chemical Co., product number I5381). Kind of assay: resonant light scattering; step 3, 50 µg/mL rabbit anti-mouse IgG in step 2 background on mouse IgG microparticles; against the starting spectra.
For assay [2] the target is unchanged. Kind of assay: resonant light scattering; step 1, 2.2 mg/mL E. coli cellular extract proteins on mouse IgG microparticles; against the starting spectra.
For assay [3] the target is unchanged. The experiment in a line: resonant light scattering; step 2, 50 µg/mL anti-Alexa rabbit IgG in cell extract background on mouse IgG microparticles; against the starting spectra.
Assay [4] addresses Protein G′ (Sigma Chemical Co. product P-4689) (group G Streptococcal strain) (UniProt P19909). The experiment in a line: resonant light scattering, real time; 500 µg/mL mouse IgG on Protein G′ microparticles; time 0 min (reference).
Assay [5] shares this target. The experiment in a line: resonant light scattering, real time; 10 µg/mL mouse IgG on Protein G′ microparticles; time 20 min.
The target is the same in assay [6]. The experiment in a line: resonant light scattering, real time; 10 µg/mL mouse IgG on Protein G′ microparticles; time 50 min.
Assay [7] shares this target. The experiment in a line: resonant light scattering, real time; 10 µg/mL mouse IgG on Protein G′ microparticles; time 16 min.
For assay [8] the target is unchanged. Kind of assay: resonant light scattering, real time; 50 µg/mL mouse IgG on Protein G′ microparticles; time 20 min.
Assay [9] has the same target. Kind of assay: resonant light scattering, real time; 10 µg/mL mouse IgG on Protein G′ microparticles; time 11 min.
Assay [10] shares this target. Kind of assay: resonant light scattering, real time; 10 µg/mL mouse IgG on Protein G′ microparticles; time 40 min.
The target is the same in assay [11]. Kind of assay: resonant light scattering, real time; 50 µg/mL mouse IgG on Protein G′ microparticles; time 30 min.
The target is the same in assay [12]. The experiment in a line: resonant light scattering, real time; 10 µg/mL mouse IgG on Protein G′ microparticles; time 25 min.
For assay [13] the target is unchanged. Kind of assay: resonant light scattering, real time; 500 µg/mL mouse IgG on Protein G′ microparticles; time 16 min.
Assay [14] shares this target. The experiment in a line: resonant light scattering, real time; 500 µg/mL mouse IgG on Protein G′ microparticles; time 30 min.
The target is the same in assay [15]. Kind of assay: resonant light scattering, real time; 500 µg/mL mouse IgG on Protein G′ microparticles; time 11 min.
The target is the same in assay [16]. The experiment in a line: resonant light scattering, real time; 10 µg/mL mouse IgG on Protein G′ microparticles; time 35 min.
The target is the same in assay [17]. Kind of assay: resonant light scattering, real time; 10 µg/mL mouse IgG on Protein G′ microparticles; time 30 min.
Assay [18] has the same target. The experiment in a line: resonant light scattering, real time; 50 µg/mL mouse IgG on Protein G′ microparticles; time 5 min.
The target is the same in assay [19]. The experiment in a line: resonant light scattering, real time; 10 µg/mL mouse IgG on Protein G′ microparticles.
For assay [20] the target is unchanged. Kind of assay: resonant light scattering, real time; 50 µg/mL mouse IgG on Protein G′ microparticles; time 11 min.
Assay [21] shares this target. Kind of assay: resonant light scattering, real time; 500 µg/mL mouse IgG on Protein G′ microparticles; time 20 min.
The target is the same in assay [22]. Kind of assay: resonant light scattering, real time; 50 µg/mL mouse IgG on Protein G′ microparticles; time 0 min (reference).
The target is the same in assay [23]. The experiment in a line: resonant light scattering, real time; 10 µg/mL mouse IgG on Protein G′ microparticles; time 60 min.
Assay [24] shares this target. Kind of assay: resonant light scattering, real time; 10 µg/mL mouse IgG on Protein G′ microparticles; time 5 min.
Assay [25] has the same target. The experiment in a line: resonant light scattering, real time; 50 µg/mL mouse IgG on Protein G′ microparticles; time 35 min.
Assay [26] has the same target. Kind of assay: resonant light scattering, real time; 10 µg/mL mouse IgG on Protein G′ microparticles; time 0 min (reference).
The target is the same in assay [27]. Kind of assay: resonant light scattering, real time; 500 µg/mL mouse IgG on Protein G′ microparticles; time 25 min.
Assay [28] has the same target. Kind of assay: resonant light scattering, real time; 500 µg/mL mouse IgG on Protein G′ microparticles; time 35 min.
For assay [29] the target is unchanged. The experiment in a line: resonant light scattering; step B, 50 µg/mL mouse IgG on Protein G′ microparticles, 0.5 h; against the unbound reference.
For assay [30] the target is unchanged. The experiment in a line: resonant light scattering, real time; 500 µg/mL mouse IgG on Protein G′ microparticles; time 5 min.
Assay [31] concerns the target avidin (from egg white, Sigma Chemical Co., product number A9275) (UniProt P02701). Kind of assay: resonant light scattering; step C, 50 µg/mL antibody on avidin held on biotinylated microparticles; shift is cumulative against the unbound reference (avidin step alone 0.031 nm); N=18.
Assay [32] deals with mouse IgG (Sigma Chemical Co., product number I5381). Kind of assay: resonant light scattering; step C, 40 µg/mL Fab specific goat anti-mouse IgG on mouse IgG held by Protein G′ microparticles; shift is cumulative against the unbound reference (0.054 nm after step B).

Sequence of UniProt P02701 (P02701 25-152 limits assumed): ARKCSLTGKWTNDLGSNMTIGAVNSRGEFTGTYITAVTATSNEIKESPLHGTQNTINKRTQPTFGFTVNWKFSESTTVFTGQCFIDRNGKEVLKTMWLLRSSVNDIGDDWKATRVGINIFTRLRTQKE

For “rabbit anti-mouse IgG (H+L) (unconjugated, Pierce, product 31188) (antibody)”, the resonance wavelength shift in assay [1] was found to be 0.056 nm.
E. coli cellular extract proteins: the resonance wavelength shift in assay [2] was -0.005 nm.
As for “anti-Alexa Fluor 488 rabbit IgG (Molecular Probes, Inc. product number A-11094) (antibody)”, the resonance wavelength shift in assay [3] was -0.004 nm.
“mouse IgG (Sigma Chemical Co., product number I5381) (antibody)”: the wavelength shift is 0 nm in assay [4]; 0.03 nm in assay [5]; 0.043 nm in assay [6]; 0.026 nm in assay [7]; 0.051 nm in [8]; 0.022 nm in [9]. Besides, the wavelength shift was 0.041 nm in [10]; 0.058 nm in [11]; 0.041 nm in assay [12]; 0.05 nm in assay [13]; 0.054 nm in assay [14]; 0.049 nm in [15]. Moreover, the wavelength shift in assay [16] was found to be 0.036 nm; in assay [17] it was 0.036 nm; in assay [18], 0.032 nm; in assay [20], 0.037 nm; in assay [21] it was 0.053 nm; in [22], 0 nm. The wavelength shift was determined as 0.043 nm in assay [23]; 0.01 nm in [24]; 0.06 nm in assay [25]; 0 nm in assay [26]; 0.052 nm in assay [27]; 0.054 nm in [28]. Besides, the wavelength shift in assay [30] stood at 0.037 nm. The substance also yielded a percent of the saturation binding level in assay [19] of 70%. For the same substance, the resonance wavelength shift in assay [29] stood at 0.054 nm.
With “biotinylated anti-bovine immunoglobulin G (IgG) [H+L] [Goat] (Rockland Inc., product number 601-1602) (antibody)”, in assay [31], the resonance wavelength shift is 0.069 nm.
As for “Fab specific goat anti-mouse IgG (Sigma Chemical Co. product M 6898) (antibody)”, the resonance wavelength shift in assay [32] is 0.111 nm.

Source of the values: patent US20050019842A1.
